Data set [1] has as its target T1, lysozyme (UniProt P00698 19-147). As to the kind of experiment: resonance light scattering; 10 mM Tris pH 7.4, 2.0 uM methyl violet (duplex sensor), target binding 20 min at 37 °C; salt not stated. The following applies: protein: commercial.
Data set [2] has as its target thrombin (UniProt P00734;P00734 328-363;364-622). As to the kind of experiment: resonance light scattering; 2.0 uM methyl violet; 100-fold excess; 10 mM Tris pH 7.4, 2.0 uM methyl violet (duplex sensor), target binding 20 min at 37 °C; salt not stated.
Data set [3] addresses ovalbumin (UniProt P01012 2-386). The data set is described as above. The following applies: protein: commercial; blunt.
Data set [4] addresses T2, papain (UniProt P00784 134-345).
T2 sequence: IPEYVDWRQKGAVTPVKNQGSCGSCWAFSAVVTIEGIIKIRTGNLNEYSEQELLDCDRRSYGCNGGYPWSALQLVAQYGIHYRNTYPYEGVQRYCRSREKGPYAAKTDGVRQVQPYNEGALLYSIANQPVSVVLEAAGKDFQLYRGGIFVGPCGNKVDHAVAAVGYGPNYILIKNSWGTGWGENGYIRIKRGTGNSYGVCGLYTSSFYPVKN
Described as above. The following applies: protein: commercial; blunt.

For data set [5], the target named is T1, lysozyme. As to the kind of experiment: resonance light scattering; 2.0 uM methyl violet; lysozyme said to open the duplex and bind Lapt; 10 mM Tris pH 7.4, 2.0 uM methyl violet (duplex sensor), target binding 20 min at 37 °C; salt not stated. To be noted: protein: commercial; blunt.

T1 sequence (P00698 19-147): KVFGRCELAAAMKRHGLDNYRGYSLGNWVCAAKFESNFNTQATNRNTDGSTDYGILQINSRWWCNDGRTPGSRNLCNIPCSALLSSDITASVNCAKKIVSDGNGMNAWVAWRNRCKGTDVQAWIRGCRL
Sequence of ovalbumin (P01012 2-386): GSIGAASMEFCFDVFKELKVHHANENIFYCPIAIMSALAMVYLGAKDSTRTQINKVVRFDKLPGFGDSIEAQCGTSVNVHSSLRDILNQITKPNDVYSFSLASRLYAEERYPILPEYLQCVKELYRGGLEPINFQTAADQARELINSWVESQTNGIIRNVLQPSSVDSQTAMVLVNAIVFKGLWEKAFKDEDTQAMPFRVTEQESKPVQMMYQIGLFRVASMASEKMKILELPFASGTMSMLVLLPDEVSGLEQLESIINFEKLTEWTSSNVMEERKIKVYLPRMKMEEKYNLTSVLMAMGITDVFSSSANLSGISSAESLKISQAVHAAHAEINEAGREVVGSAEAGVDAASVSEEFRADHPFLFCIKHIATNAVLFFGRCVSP

B1: Lapt (lysozyme aptamer) (ssDNA)
DNA: ATCTACGAATTCATCAGGGCTAAAGAGTGCAGAGTTACTTAGACCTTCCTCCGCAATACTCCCCCAGGTT
For B1, in data set [1], the binding result is “binds”.

B2: Lapt≈Aapt duplex (with methyl violet) (dsDNA)
DNA 1: ATCTACGAATTCATCAGGGCTAAAGAGTGCAGAGTTACTTAGACCTTCCTCCGCAATACTCCCCCAGGTT
DNA 2: AACCTGGGGGAGTATTGCGGAGGAAGGTCTAAGTAACTCTGCACTCTTTAGCCCTGATGAATTCGTAGAT
With B2, the binding result in data set [2] was “no binding”; in data set [3], “no binding”; in data set [4] it was “no binding”; in data set [5], “binds”.

The values are drawn from PMC4705532, ““Click on the bidirectional switch”: the aptasensor for simultaneous detection of lysozyme and ATP with high sensitivity and high selectivity”.
